Source: paper PMC7755903 (Nature Communications, 2020)
Positions count from the first letter of the chain named. Numbers in names are those of the source.

B1: wild-type (WT) tetrameric human βI-tryptase (enzyme)
chain: not shown
notes: mature human βI-tryptase, Ile31-Pro275 of Uniprot Q15661 (Ile16-Pro246 in chymotrypsinogen numbering); N-terminus IVGG after enterokinase cleavage; Homotetramer; residues in the results are in chymotrypsinogen numbering; also called βI-tryptase tetramer; tetrameric β-tryptase; source: Trichoplusia ni cells (baculovirus), secreted, purified (Ni-NTA, S200 SEC); zymogen cleaved with enterokinase in …
B2: E104.v2 Fab (Fab, V domains shown)
VH: EVQLVESGPGLVKPSETLSLTCTVSRFSLIGYAITWIRQPPGKGLEWIGGISSAATTFYSSWAKSRVTISRDTSKNQVSLKLSSVTAADTAVYYCARDPRGYGAALDRLDLWGQGTLVTVSS
VL: DIQMTQSPSSLSASVGDRVTITCQSIKSVYNNRLGWYQQKPGKAPKLLIYETSILTSGVPSRFSGSGSGTDFTLTISSLQPEDFATYYCAGGFDRSGDTTFGQGTKVEIK
notes: as the heavy chain of m6 (PDB 6VVU, Fab heavy chain) with the two framework changes V71R and F78V (Kabat numbering); as the light chain of m6 (PDB 6VVU, Fab light chain); No structure of v2 was obtained; it differs from v1 only at heavy chain framework positions 71 and 78; also called Fab E104.v2; source: E. coli, purified (Protein G, SP Sepharose, S75 SEC)
B3: E104.v2 IgG1 hinge variant G1 + G (antibody, V domains shown)
VH: B2 VH
VL: B2 VL
notes: variable domain of the heavy chain as in m6 (PDB 6VVU, Fab heavy chain) with V71R and F78V (Kabat numbering); human IgG1 heavy chain constant region before the upper hinge (CH1); upper hinge of the variant; human IgG1 heavy chain constant region after the upper hinge (core hinge from C226, CH2, CH3); as the light chain of m6 (PDB 6VVU, Fab light chain); IgG1 with an extended upper hinge; source: …
B4: E104.v2 IgG1 hinge variant G1 + GG (antibody, V domains shown)
VH: B2 VH
VL: B2 VL
notes: as for B3
B5: humanized E104.v2 IgG1 (antibody, V domains shown)
VH: B2 VH
VL: B2 VL
notes: variable domain of the heavy chain as in m6 (PDB 6VVU, Fab heavy chain) with V71R and F78V (Kabat numbering); human IgG1 heavy chain constant region; as the light chain of m6 (PDB 6VVU, Fab light chain); IgG1; also called IgG1.v2; WT IgG1 hinge; source: 293 cells, transient transfection, purified (MabSelect SuRe, SEC); copies: 2 + 2
B6: humanized E104.v1 IgG1 (antibody, V domains shown)
VH: B2 VH with R71V, V78F
VL: B2 VL
notes: variable domain of the heavy chain as in m6 (PDB 6VVU, Fab heavy chain); human IgG1 heavy chain constant region; as the light chain of m6 (PDB 6VVU, Fab light chain); IgG1; also called IgG1.v1; source: 293 cells, transient transfection, purified (MabSelect SuRe, SEC); copies: 2 + 2
B7: E104.v2 IgG2 (antibody, V domains shown)
VH: B2 VH
VL: B2 VL
notes: variable domain of the heavy chain as in m6 (PDB 6VVU, Fab heavy chain) with V71R and F78V (Kabat numbering); human IgG2 heavy chain constant region; upper hinge printed as ERKCCVE; as the light chain of m6 (PDB 6VVU, Fab light chain); IgG2 isotype version of E104.v2; source: 293 cells, transient transfection, purified (MabSelect SuRe, SEC); copies: 2 + 2
B8: E104.v2 IgG1 hinge variant G1-H (antibody, V domains shown)
VH: B2 VH
VL: B2 VL
notes: variable domain of the heavy chain as in m6 (PDB 6VVU, Fab heavy chain) with V71R and F78V (Kabat numbering); human IgG1 heavy chain constant region before the upper hinge (CH1); upper hinge of the variant; human IgG1 heavy chain constant region after the upper hinge (core hinge from C226, CH2, CH3); as the light chain of m6 (PDB 6VVU, Fab light chain); IgG1 with a shortened upper hinge; source: …
B9: E104.v2 IgG1 hinge variant G1.P5 (antibody, V domains shown)
VH: B2 VH
VL: B2 VL
notes: variable domain of the heavy chain as in m6 (PDB 6VVU, Fab heavy chain) with V71R and F78V (Kabat numbering); human IgG1 heavy chain constant region before the upper hinge (CH1); upper hinge of the variant; human IgG1 heavy chain constant region after the upper hinge (core hinge from C226, CH2, CH3); as the light chain of m6 (PDB 6VVU, Fab light chain); IgG1 with five prolines in the upper hinge; …
B10: E104.v2 IgG1 hinge variant G1 + (GGS)3 (antibody, V domains shown)
VH: B2 VH
VL: B2 VL
notes: as for B3
B11: humanized E104.v2 IgG4 (antibody, V domains shown)
VH: B2 VH
VL: B2 VL
notes: variable domain of the heavy chain as in m6 (PDB 6VVU, Fab heavy chain) with V71R and F78V (Kabat numbering); human IgG4 heavy chain constant region; upper hinge printed as ESKYGPP; as the light chain of m6 (PDB 6VVU, Fab light chain); IgG4 isotype version of E104.v2; source: 293 cells, transient transfection, purified (MabSelect SuRe, SEC); copies: 2 + 2
B12: E104.v2 IgG1 hinge variant G1.G5 (antibody, V domains shown)
VH: B2 VH
VL: B2 VL
notes: variable domain of the heavy chain as in m6 (PDB 6VVU, Fab heavy chain) with V71R and F78V (Kabat numbering); human IgG1 heavy chain constant region before the upper hinge (CH1); upper hinge of the variant; human IgG1 heavy chain constant region after the upper hinge (core hinge from C226, CH2, CH3); as the light chain of m6 (PDB 6VVU, Fab light chain); IgG1 with five glycines in the upper hinge; …
B13: E104.v2 IgG1 hinge variant G1-TH (antibody, V domains shown)
VH: B2 VH
VL: B2 VL
notes: as for B8
B14: E104.v2 IgG1 hinge variant G1-KTH (antibody, V domains shown)
VH: B2 VH
VL: B2 VL
notes: as for B8
B15: E104.v2 IgG1 hinge variant G1 + GGS (antibody, V domains shown)
VH: B2 VH
VL: B2 VL
notes: as for B3
B16: E104.v2 IgG1 hinge variant G1.CC (antibody, V domains shown)
VH: B2 VH
VL: B2 VL
notes: variable domain of the heavy chain as in m6 (PDB 6VVU, Fab heavy chain) with V71R and F78V (Kabat numbering); human IgG1 heavy chain constant region before the upper hinge (CH1); upper hinge of the variant; human IgG1 heavy chain constant region after the upper hinge (core hinge from C226, CH2, CH3); as the light chain of m6 (PDB 6VVU, Fab light chain); IgG1 with two added cysteines in the upper …

Target: the molecule itself
Test: crystal structure; E104.v1 Fab with tetrameric βI-tryptase; crystals at 19 °C, 0.1 M Tris pH 8.5, 0.2 M CaCl2, 20% PEG 4000, 4% pentaerythritol ethoxylate; 3.0 Å
Conditions: not given

Q: For B1, which “stoichiometry N” value is on record?
A: 4

target: T1, βI-tryptase tetramer mutant I99C (human, engineered disulfide bond in the large interface (C99)); test: SEC; without heparin; tetrameric βI-tryptase (WT, Y75C or I99C) or zymogen monomer mixed with a twofold molar excess of Fab, 15 min at 25 °C; S200GL column in 10 mM MOPS pH 6.8, 2 M NaCl; fractions checked by SDS-PAGE; conditions: both partners purified
T1 construct: mature human βI-tryptase, Ile31-Pro275 of Uniprot Q15661 (Ile16-Pro246 in chymotrypsinogen numbering); numbers count on: chymotrypsinogen numbering; Loaded as a tetramer; with E104.v2 Fab it runs as a complex of the disulfide-linked dimer; also called disulfide-locked large interface mutant; not shown: His6, N-terminal, cleaved
T1 sequence (chain, as listed by the source I99C I99C): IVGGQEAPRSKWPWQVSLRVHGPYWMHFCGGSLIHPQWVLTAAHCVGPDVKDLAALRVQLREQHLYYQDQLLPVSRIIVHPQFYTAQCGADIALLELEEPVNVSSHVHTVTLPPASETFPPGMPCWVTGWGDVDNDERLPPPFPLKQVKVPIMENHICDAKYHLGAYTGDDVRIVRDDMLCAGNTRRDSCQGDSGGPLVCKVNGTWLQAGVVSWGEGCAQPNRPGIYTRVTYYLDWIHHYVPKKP

Q: Which “stoichiometry N” value does the source give for B2 here?
A: 2 Fab per disulfide-linked dimer

target: T2, human βI-tryptase monomer (Homo sapiens, UniProt Q15661); test: SPR; Biacore T200; E104 IgG variants captured on immobilised mouse anti-human IgG (Fc) antibody on CM5 chips; threefold dilutions of human βI-tryptase monomer injected at 30 µL/min, 25 °C; 1:1 Langmuir model; n = 2; conditions: both partners purified
T2 construct: mature human βI-tryptase, Ile31-Pro275 of Uniprot Q15661 (Ile16-Pro246 in chymotrypsinogen numbering); The monomer used in SPR and HDX-MS; also called monomeric βI-tryptase; monomeric β-tryptase
T2 sequence (Q15661 31-275): as the sequence (chain, as listed by the source I99C I99C) above, with C88I counted along it

Q: How did the Kd turn out when B3 was run?
A: 500 ± 10 pM

Q: For B4, which Kd is on record?
A: 400 ± 20 pM

Q: B5 was tested. Which Kd did it give?
A: 600 ± 10 pM

Q: B6 was tested. Which Kd did it give?
A: 500 ± 20 pM

Q: For B7, which Kd is on record?
A: 600 ± 100 pM

Q: With B8 as the binder, how does the Kd read?
A: 600 ± 100 pM

Q: With B9 as the binder, how does the Kd read?
A: 400 ± 100 pM

Q: For B10, which Kd is on record?
A: 500 ± 100 pM

Q: With B11 as the binder, how does the Kd read?
A: 700 ± 40 pM

Q: B12 was tested. Which Kd did it give?
A: 600 ± 100 pM

Q: How did the Kd turn out when B13 was run?
A: 500 ± 70 pM

Q: For B14, which Kd is on record?
A: 500 ± 90 pM

Q: Which Kd does the source give for B15 here?
A: 500 ± 50 pM

Q: With B16 as the binder, how does the Kd read?
A: 400 ± 30 pM
